# Laboratory results reported in publication PMC12866179, “Oxidized MIF is an Alzheimer’s disease drug target relaying external risk factors to tau pathology” (Cell Reports Medicine, 2025).
# T1: recombinant human wild-type macrophage migration inhibitory factor (MIF) (human), P14174
# T1 chain: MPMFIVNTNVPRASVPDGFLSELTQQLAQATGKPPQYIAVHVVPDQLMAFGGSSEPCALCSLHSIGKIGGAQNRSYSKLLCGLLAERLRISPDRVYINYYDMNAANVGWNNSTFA
# Molecular target: T1, recombinant human wild-type macrophage …
# Assay: SEC-MALS; 100 uM MIF (WT or C80W) in 20 mM phosphate buffer, with or without 100 uM PAV-174; TSKgel G2000SWXL, 0.5 mL/min, 25 C; UV 280 nm and miniDawn Treos light scattering
# Details: remark: other sources report otherwise
binder,measurement,value
"recombinant human wild-type macrophage migration inhibitory factor (MIF), P14174 1-115 (natural protein) MPMFIVNTNVPRASVPDGFLSELTQQLAQATGKPPQYIAVHVVPDQLMAFGGSSEPCALCSLHSIGKIGGAQNRSYSKLLCGLLAERLRISPDRVYINYYDMNAANVGWNNSTFA",stoichiometry N,3
